Source: the nanobody polyreactivity screen of Harvey et al. (2022)

Assay: yeast display, Sf9 membrane polyspecificity reagent, FACS + sequencing; frameworks hold sequencing errors
In short: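 Galactose induction of a Saccharomyces cerevisiae BJ5465 synthetic nanobody display library ran 36–48 hours. The cells were then stained for 1 hour at 4 °C with 10% biotinylated, detergent-solubilized Sf9 membrane reagent, pulled down on streptavidin microbeads and FACS-sorted into low and high (top ~1%) gates on expression and reagent-binding fluorescence. Labels for polyreactivity follow the gate of origin.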

| Sequence | polyreactivity (PSR sort gate) |
| --- | --- |
| QVQLVESAAGLVQAGGSLRLSCADSGSTIYRYAMGWYRQAPGKERELVAAISTTGGSTFYADSVKGRFTISRDNAKNTVYLQMNSLKPEDTAVYYCNAYYRGTYDYWGQGTQVTVSS | high polyreactivity |
| QVQLVESAGALVQAGGSLRLSCAASGRIFSVYAMGWYRQAPGKERELVATITYNGGSTYYADSVKGRFTISRDNAKNTVYLQMNSLKPEDTAVYYCAADWTYVRFDYWGQGTQVTVSS | low polyreactivity |
| QVQLVESAGCLVQAGGSLRLSCDASGIIFKVYAMGWYSQAPGKEREWVAAISWSGSSTYYADTVKGRFTISRDKAKNTVYLQMNSLKPEDTAVYYCAAYSVARSMGYWGQGTQVTVSS | high polyreactivity |
| QVQLVESAGGIVQAGGSLRLSCAASGFIFVRNAIGWYRQAPGKEREFVAAINSSGGRTYYADSVKGRFTISRDNAKNTVYLQMNSLKPEDPAVYYCAARPQPKKFYYWGLGTQVTVSS | high polyreactivity |
| QVQLVESAGGLVQAAGSLRLSCAASGFVFYSYAMGWYRQAPGKERELVAVISRSGGSTYYADSVKGRFTISRDNAKNTVYFQMNSLKPEDTAVYYCAAKYHGQERGAPPFYYWGQGTQVTVSS | high polyreactivity |
| QVQLVESAGGLVQAAGSLRLSCDASGRIFWYNAMGWYRQEPGKERELVAAISSGGSTSYADSVKGRFTISRDNAKNTVYLQMNSLKPEDTAVYYCDKDDERKQGQYPPYDSWGQGTQVTVSS | low polyreactivity |
| QVQLVESAGGLVQAGASLRLSCAASGIIFTRYAMGWYRQPPGKESELVAAITRSSGSTYYADSVKGRFTISRDNAKNTVYLQMNSLKPEDSAVYYCAADWVSRYQARPYFSAFNYWGQGTQVTVSS | high polyreactivity |
| QVQLVESAGGLVQAGASLRLSCAASGSIFGGYAMGWYRQAPGTERELVAAISSGDSTYYADSVKGRFTISRDNAKNTVYLQMNSLKPEDTAVYYCARRYTRSYYKLGKLNYWGQGTQVTVSS | high polyreactivity |
| QVQLVESAGGLVQAGGILRLRCAASGFTFTSNAMGWYRQAPGKEREFVADISNIGGDTTYADSVKGRFTISRDNAKNTVYLQMNSLNPEDTAVYYCNADFAFIENDYCGQGTQVTVSS | low polyreactivity |
| QVQLVESAGGLVQAGGILRLSCHASGITFTSYVMGWYRQSPGKERELVAAIRWSGGRTYYADSVKGRFTISRDNAKNTVYLQMNSLKPEDTAVYYCNRVTRSHVDYWGQGTQVTVSS | high polyreactivity |
| QVQLVESAGGLVQAGGSLRLICAASGSTFTYYPMGWYRQAPGKERELVAAISGSGGRTYYADSVKGLFTISRDNAKNTVYLQMNSLKPEDTAVYYCNARATSLVPGRPKQYTYYYWGQGTQVTVSS | high polyreactivity |
| QVQLVESAGGLVQAGGSLRLSCAASGFIFARYAMGWYRQAPGKERELVAAISSSGGITYYADSVKGRFTISRDNAKNTVYFQMNSLKPEDTAVYYCNAESYYFYWPVYSYDYWGQGTQVTVSS | low polyreactivity |
| QVQLVESAGGLVQAGGSLRLSCAASGFSFYYNTMGWYRQAPGTEWELVASITWSGDTTYYADSVKGRFTISRDNAKNTVYLQMNSLKPEDTAVYYCAAVPYYPYRRYDYWGQGTQVTVAS | low polyreactivity |
| QVQLVESAGGLVQAGGSLRLSCAASGFTFDYYAMGWYRQAPGKERELVASITFIGGNTNYADSVKGRFTISRDNAKTTVYLQMNSLKPEDTAVYYCAADFPWDYRYWFEYWGQGTQVTVSS | low polyreactivity |
| QVQLVESAGGLVQAGGSLRLSCAASGFTFYRNAIGWYRQEPGTERELVAGITRSGGSTYYADSVKGRLTISRDNAKNTVYLQMNSLKPEDTAVYYCNKAFGGDKYSGTYDYWGQGTQVTVSS | high polyreactivity |
| QVQLVESAGGLVQAGGSLRLSCAASGFTFYTYGMGWYRQAPGKERALVAAITSGVSTNYADSVKGRFTISRDNAKNTVYLQMNSLKPEDTAVYYCNKVGRPAYRWYDYWGQDTQVTVSS | low polyreactivity |
| QVQLVESAGGLVQAGGSLRLSCAASGIIFGQNAMGWYRQAPGKDRELVAAITISGGSTYYADSVKGRFTISRDNAKNTVYLQMNSLKPEVTAVYYCAARRVTWKDIAGGYRYGYWGQGTQVTVSS | low polyreactivity |
| QVQLVESAGGLVQAGGSLRLSCAASGIIFTYYAMGWYRQAPGKERELVAAISSSSGSTYYADSVKGRFTISRDNAKNTVYLQMNSLKPEDTAVYYCAAAFSQYSTSYYYWGQGTQVTVSS | high polyreactivity |
| QVQLVESAGGLVQAGGSLRLSCAASGITFEVYAMGWYRQAPGKERELVAAITGSGSRTYYADSVKGRFTISRDNAKNTVYLQMNSLKPEDTAVYYCAVKGFSTRSYREFDYWGQGSQVTVSS | low polyreactivity |
| QVQLVESAGGLVQAGGSLRLSCAASGITFRYYAMGWYRQAPGKERELVATITRGGSTYYADSVKGRFTISRDNAKNTVYLQMNSLKPEDTAVYYCAARSYVPSYDYWGQGTQVTVSS | high polyreactivity |
| QVQLVESAGGLVQAGGSLRLSCAASGLTFYVNAMGWYRQAPGKERELVAAITWSGGSTHYADSVKGRFTISRDNAKNTVYLQMNSLKPEDTAVYYCARATYQHSYVAYDYWGQGTQVTVSS | low polyreactivity |
| QVQLVESAGGLVQAGGSLRLSCAASGNTFRYYAIGWYRQAPGKERELVAVITTRGGSTNYADSVKGRFTISRDNAKNTVYLQMNRLKPEVTAGYYCNTLRHYGPGYDSGGQGTQVTVSS | low polyreactivity |

| Sequence | polyreactivity (PSR sort gate) |
| --- | --- |
| QVQLVESAGGLVQAGGSLRLSCAASGRIFDRYTMGCYRQAPGKERELVAAITFGGGSTYYADSVKGRFTISRDNAKNTVYLQMNSLKPEDTAVYYCAKQRHGKLGHILGYNYWGQGTQVTVSS | low polyreactivity |
| QVQLVESAGGLVQAGGSLRLSCAASGRIFGRYAMGWYRQAPGKERELVAAITSGTSTYYADSVKGRFTISRDNAKNTVYLQMNSLKPEDTAVYYCNADYPYYPYRENYWGQGTQVTVSS | low polyreactivity |
| QVQLVESAGGLVQAGGSLRLSCAASGRIFPYYAMGWYRQAPGKERELVAAITTDGGGTYYADSVKGRFTISRDNSKNTVYLQMNSMKPEDTAVYYCAVPSYQWYDPENYWGQGTQVTVSS | low polyreactivity |
| QVQLVESAGGLVQAGGSLRLSCAASGRISAYAMGWYRQAPGKERELVAAISSRGGRTYYADSVKGRFTISRDNAKNTVYLQMNSLKPDDTAVYYCNALRTWEFDHWGQGTQVTVSS | high polyreactivity |
| QVQLVESAGGLVQAGGSLRLSCAASGRNFYRNAMGWYRQAPGKERELVAAISYSGGSTYYADSVKGRFTISRDNAKNTVYLQMNSLKPEDTAVYYFAAAGDRWGNYWGQGTLVTVSS | high polyreactivity |
| QVQLVESAGGLVQAGGSLRLSCAASGRTFPGNAMGWYRQAPGKERELVATISSGGTTNYADSVKGRFTISRDNAKTTVYLQMNSLKPEDTAVYYCATDTYHHKADYEYWGQGTQVTVSS | low polyreactivity |
| QVQLVESAGGLVQAGGSLRLSCAASGSICTKYAMGWYRQAPGKERELVAAISASGGSTYYADSVKGRFTISRDNAKNTVYLQMNSLKPEDTAVYYCAARYWVREDYWGQGTQVTVSS | high polyreactivity |
| QVQLVESAGGLVQAGGSLRLSCAASGSIFILNAMGWYRQAPGKERELVAAISWSGGRTNYADSVKGRFTISRDNAKNTVYLHMNRLKPEDTAVYSCAARVTPYRGFYYWGQGTQVTVSS | high polyreactivity |
| QVQLVESAGGLVQAGGSLRLSCAASGSIFPAYAMGWYRQAPGKERELVASITTGDRTYYADSVKGRFTISRDNAKNTVYLQMNSLKPEDTAVYYCAALYYVHYYSAHYPTLSRHEYWGPGTQVTVSS | high polyreactivity |
| QVQLVESAGGLVQAGGSLRLSCAASGSIFSRNAMGWYRPAPGKERELVAAITWSGGSTYYADSVKGRFTISRDNAKNTVYLQMNSLKPEDTAVYYCNAKRSSRIKQLEYDYWGQGTQVTVSS | high polyreactivity |
| QVQLVESAGGLVQAGGSLRLSCAASGSIFTTYTIVWYRQAPGKERELVAAITSSSGSTYYADSVKGRFTISRDNAKNTVYLQMNSLKPEDTAVYYCNATYSAAVDYWGQGTQVTVSS | low polyreactivity |
| QVQLVESAGGLVQAGGSLRLSCAASGSTFDLYAMGWYRQAPGKEREFVAAISRSGGSTYYADSVKGRFTISRDNAKNTVYLHMNSLKPEDTAVYYSNARWPPGVSRGGMGYWGQGTQVTVST | high polyreactivity |
| QVQLVESAGGLVQAGGSLRLSCAASGSTFGENAMGWYRQAPGKERELVAAISDSGGDTYYADSVKGRFTISRDNAKYTVYLQMNSLKPEDTAVYYCAADRYGYWYAYYSWGQGTLVTVSS | low polyreactivity |
| QVQLVESAGGLVQAGGSLRLSCAASGSTFIRYAMGWYRQAPGKERELVAAITRGGSTYYADSVKGRFTISRDNAKYTVYLQMNSLKPEDTAVYYCAAGYYGNGVFEYDYWGQGTQVTVSS | low polyreactivity |
| QVQLVESAGGLVQAGGSLRLSCAASGSTFPTYAMGWYRQSPGKERELVAAIDWSDGSITYYADSVKGRFTISRDNAKNTVYLQMNSMKPEDTAVYYCAKDNSQYGWGYDYWGQGTQVTVSS | low polyreactivity |
| QVQLVESAGGLVQAGGSLRLSCAASGSTFVANAMGWYRQAPGKERELVARISRSTGSTYYADSVKGRFTISRDNAKNTVYLQMNSLKPEDTAVYYCAAPSVYYPQFDYWGQGTQVTVSS | high polyreactivity |
| QVQLVESAGGLVQAGGSLRLSCAASGSTLSWNTMGWYRQAPGKERELVARINWGGSSTYYADSVKGRFTISRDNAKNTVYLQMNSLKPEDTAVFYCNARYLSSAYDYWGQGTQVTVSS | high polyreactivity |
| QVQLVESAGGLVQAGGSLRLSCAASGSTLYKYAMGWYRQAPGKETEMVATLTRTDSTNYADSVKGRFTISRDNAKNTVYIQMNSLKPEDTAVYYCAARRVYYNGYYVNVGSFYYWGQGTQVTVSS | low polyreactivity |
| QVQLVESAGGLVQAGGSLRLSCAASGYIFVPYAMGWYRQAPGKERELVASITWSGGSTYYADSVKGRFTISRDNAKNTVYLQMNSLKPEDTAVYYCAAANYTYASRWYDYWGQGTQVTVSS | low polyreactivity |
| QVQLVESAGGLVQAGGSLRLSCAASGYTFPFYTMGWYRQAPGKERELVAAITDTGGGTYYADSVKGRFTISRDNAKNTVYLQMNSLNPEDTAVYYCAKPTSYRGYYSWGQGTQVTVSS | high polyreactivity |
| QVQLVESAGGLVQAGGSLRLSCAATGSIFHPYAMGWYRQAPGKERELVASITSSGGSTYYADSVKVRFTISRENAKNTVYLEMNSLKPEDTAVYYCKAQFLVYFFWYSTTAYIMYYWGQGTQVTVSS | low polyreactivity |
